From article PMC3248148

Molecular target: human p23 co-chaperone (human) (UniProt Q15185)
Test: SEC; HiPrep Sephacryl S-200; each protein alone; 50mM Hepes, 150mM NaCl, 50mM KCl, 10mM MgCl2, 1mM DTT, pH 7.5; molecular weight interpolated from standards

human p23 co-chaperone (from UniProt Q15185 1-160) (natural protein)
stoichiometry N: 2
